Test results from the supplement of paper PMC9233669.
This sample holds only a part of the variants without activity.

How the values were obtained:
biotinyl-Trp-oxazolone = experiment: self-aminoacylation, catalytic enhancement (BWO) (fold over background); higher = more active; k-Seq, kA / k0A0; sequences stand for … in GGGAAUGGAUCCACAUCUACGAAUUC…UUCACUGCAGACUUGACGAAGCUG
Summary of the method: (§1)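 The uncatalyzed rate is the low-activity peak of a bimodal Gaussian fit, and catalytic enhancement is median kA divided by it. The kA values came from pseudo-first-order fits, with 1000 bootstraps, of per-sequence fraction reacted measured by streptavidin capture, triplicate qPCR and Illumina sequencing. Mutagenized RNA pools with a 21-nt variable region (0.43 μM) were reacted with each biotinyl-aminoacyl-oxazolone at 2–1250 μM in 50 μL HEPES/NaCl/KCl/MgCl2/CaCl2 buffer with 5% acetonitrile, pH 6.9–7.0, for 90 minutes at room temperature.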

biotinyl-Leu-oxazolone = experiment: self-aminoacylation, catalytic enhancement (BLO) (fold over background); higher = more active; k-Seq, kA / k0A0; sequences stand for … in GGGAAUGGAUCCACAUCUACGAAUUC…UUCACUGCAGACUUGACGAAGCUG
Summary of the method: as §1

biotinyl-Ile-oxazolone = experiment: self-aminoacylation, catalytic enhancement (BIO) (fold over background); higher = more active; k-Seq, kA / k0A0; sequences stand for … in GGGAAUGGAUCCACAUCUACGAAUUC…UUCACUGCAGACUUGACGAAGCUG
Summary of the method: as §1

biotinyl-Met-oxazolone = experiment: self-aminoacylation, catalytic enhancement (BMO) (fold over background); higher = more active; k-Seq, kA / k0A0; sequences stand for … in GGGAAUGGAUCCACAUCUACGAAUUC…UUCACUGCAGACUUGACGAAGCUG
Summary of the method: as §1

biotinyl-Phe-oxazolone = experiment: self-aminoacylation, catalytic enhancement (BFO) (fold over background); higher = more active; k-Seq, kA / k0A0; sequences stand for … in GGGAAUGGAUCCACAUCUACGAAUUC…UUCACUGCAGACUUGACGAAGCUG
Summary of the method: as §1

biotinyl-Val-oxazolone = experiment: self-aminoacylation, catalytic enhancement (BVO) (fold over background); higher = more active; k-Seq, kA / k0A0; sequences stand for … in GGGAAUGGAUCCACAUCUACGAAUUC…UUCACUGCAGACUUGACGAAGCUG
Summary of the method: as §1

Sequence	self-aminoacylation (biotinyl-Trp-oxazolone)	self-aminoacylation (biotinyl-Leu-oxazolone)	self-aminoacylation (biotinyl-Ile-oxazolone)	self-aminoacylation (biotinyl-Met-oxazolone)	self-aminoacylation (biotinyl-Phe-oxazolone)	self-aminoacylation (biotinyl-Val-oxazolone)
AUUCACGUUGGUCAUCGGGUG [Fam2.2 aminoacylation ribozyme variant]	10.1	12.2	6.91	12.5	121	8
AUUCACUCAGGUCAUCGGGUG [Fam2.2 aminoacylation ribozyme variant]	4.79	6.71	3.48	4.85	41.3	4.16
AUUCACUUAGGCCAUCGGGUG [Fam2.2 aminoacylation ribozyme variant]	3.26	3.9	2.53	3.04	16	2.65
AUUCACUUAGGUCACCGGGUG [Fam2.2 aminoacylation ribozyme variant]	5.19	5.15	3.47	4.86	28.2	3.33
AUUCACUUAGGUCAUCCGGUG [Fam2.2 aminoacylation ribozyme variant]	6.84	8.78	4.64	6.26	43.4	4.72
AUUCACUUAGGUCAUCGGGUU [Fam2.2 aminoacylation ribozyme variant]	1.47	1.69	1.59	1.78	6.63	1.65
AUUCACUUCGGUCAUCGGGUG [Fam2.2 aminoacylation ribozyme variant]	7.68	10.1	5.12	7.48	55.8	5.73
AUUCAGCGAGGUCAUCGGGUG [Fam2.2 aminoacylation ribozyme variant]	7.06	7.8	4.46	6	44	5.33
AUUCAGCUAGCUCAUCGGGUG [Fam2.2 aminoacylation ribozyme variant]	3.74	3.86	2.69	3.07	20.2	3.41
AUUCAGCUAGGUCAGCGGGUG [Fam2.2 aminoacylation ribozyme variant]	4.28	4.01	2.71	3.79	21.8	2.53
AUUCAGCUAGGUCAUCGGCUG [Fam2.2 aminoacylation ribozyme variant]	2.02	1.52	1.63	1.55	11.6	1.86
AUUCAGCUAGGUCAUCGGGUU [Fam2.2 aminoacylation ribozyme variant]	3.38	2.5	2.81	3.1	18.7	2.79
AUUCAGCUAGGUCAUCGGUUG [Fam2.2 aminoacylation ribozyme variant]	1.25	1.07	0.882	1.16	5.67	0.865
